From patent publication US20240350597A1, “PROTEASE INHIBITORS” (University College Dublin, priority 2023, published 2024)
Positions count from the first letter of the chain named. “Also recorded” adds a separate entry of the source.

Test system: SARS-CoV-2 (WT, D614G)
Assay type: cell-based

B1: B3-WT: Wild type recombinant SerpinB3 (SCCA-1), 44.5 kDa cross-class inhibitor of cysteine proteases including CatL; SEQ ID No. 5 (protein, listed as Homo sapiens)
chain: MNSLSEANTKFMFDLFQQFRKSKENNIFYSPISITSALGMVLLGAKDNTAQQIKKVLHFDQVTENTTGKAATYHVDRSGNVHHQFQKLLTEFNKSTDAYELKIANKLFGEKTYLFLQEYLDAIKKFYQTSVESVDFANAPEESRKKINSWVESQTNEKIKNLIPEGNIGSNTTLVLVNAIYFKGQWEKKFNKEDTKEEKFWPNKNTYKSIQMMRQYTSFHFASLEDVQAKVLEIPYKGKDLSMIVLLPNEIDGLQKLEEKLTAEKLMEWTSLQNMRETRVDLHLPRFKVEESYDLKDTLRTMGMVDIFNGDADLSGMTGSRGLVLSGVLHKAFVEVTEEGAEAAAATAVVGFGSSPTSTNEEFHCNHPFLFFIRQNKTNSILFYGRFSSP
inhibition of SARS-CoV-2 WT (D614G) infection (in words): reductions in SARS-CoV-2 infection | inhibition of SARS-CoV-2 replication / infection (50 µM): 50%

B2: B3-TMP: SerpinB3 variant with RCL residues 350 to 354 (P4 to P1′) replaced by IQFRV to inhibit TMPRSS2; SEQ ID No. 6 (protein)
chain: B1 chain with V350I, G351Q, G353R, S354V
inhibition of SARS-CoV-2 WT (D614G) infection (in words): good dose-dependent downregulation of viral replication; also recorded: greater inhibitor for both viral strains than WT-SerpinB3 | inhibition of SARS-CoV-2 replication: up to 50% | inhibition of viral replication, full time treatment (50 µM): 93% | viral inhibition, treatment limited to viral entry (50 µM): up to 70%
